Experimental data: publication PMC5050560

Key:
[1] = target: cdPadR1^W94A (Clostridium difficile R20291); assay: SEC-MALS
[2] = target: cdPadR1 (PadR family transcription regulator, product of CDR20291_0991, Clostridium difficile R20291) (Clostridium difficile R20291); assay: SEC
[3] = target: cdPadR1 (PadR family transcription regulator, product of CDR20291_0991, Clostridium difficile R20291) (Clostridium difficile R20291); assay: SEC-MALS

Substance | stoichiometry N [1] | stoichiometry N [2] | stoichiometry N [3]
cdPadR1^W94A (from UniProt A0A9R0CDW8 1-109) (natural protein) | 2 |  | 
cdPadR1 (PadR family transcription regulator, product of CDR20291_0991, Clostridium difficile R20291) (from UniProt A0A9R0CDW8 1-109) (natural protein) |  | 2 | 2
